Test results taken from patent US20200277377A1 (WUXI BIOLOGICS SHANGHAI, published 2020).
Changes are numbered by the printed parent chain. Each block holds one binder with its values, some of them ahead of it.

Key:
Murine CTLA-4.ECD-6×His [1] = biological target: T1, Murine CTLA-4.ECD-6×His (mouse, UniProt P09793 36-161); experiment: ELISA, antibody titrated on coated mouse CTLA-4.ECD-6xHis, OD450 [C) Murine CTLA-4]
T1 construct: extracellular domain; Bought; also called mouse CTLA-4.ECD-6×His; mouse CTLA-4 ECD
Experimental: (§1) ELISA was used to test binding of anti-human CTLA-4 antibodies to human, murine and cynomolgus monkey CTLA-4 protein. A 96-well plate was coated with human CTLA-4.ECD-6×His (1.0 μg/mL), cynomoguls monkey CTLA-4.ECD-6×His (0.5 μg/mL) or mouse CTLA-4.ECD-6×His (0.5 μg/mL) at 4° C. for 16-20 hours. After 1 hour blocking with 2% BSA in DBPS, testing antibodies, as well as positive and negative control antibodies were added to the plates and incubated at room temperature for 1 hour. The binding of the antibodies to the plates were detected by HRP-conjugated goat anti-human IgG antibody (1:5000 dilution) with 1 hour incubation. The color was developed by dispensing 100 μL of TMB substrate for 8 mins, and then stopped by 100 μL of 2N HCl.

Murine CTLA-4.ECD-6×His [2] = biological target: T1, Murine CTLA-4.ECD-6×His; experiment: ELISA, coated mouse CTLA-4.ECD-6×His
Experimental: as §1

Murine CTLA-4.ECD-6×His [3] = biological target: T1, Murine CTLA-4.ECD-6×His; experiment: SPR, antibody captured on anti-human Fc, CTLA-4.ECD-6×His as analyte, 1:1 fit
Experimental: Biacore T200, Series S Sensor Chip CMS, Amine Coupling Kit, and 10×HBS-EP were purchased from GE Healthcare. […] In immobilization step, the activation buffer was prepared by mixing 400 mM EDC and 100 mM NHS immediately prior to injection. The CM5 sensor chip was activated for 420 s with the activation buffer. 30 μg/mL of goat anti-human IgG Fcγ antibody in 10 mM NaAc (pH 4.5) was then injected to Fc1-Fc4 channels for 200 s at a flow rate of 5 μL/min. The chip was deactivated by 1 M ethanolamine-HCl (GE). Then the antibodies were captured on the chip. Briefly, 4 μg/mL antibodies in running buffer (HBS-EP+) was injected individually to Fc3 channel for 30 s at a flow rate of 10 μL/min. […] Regeneration buffer (10 mM Glycine pH 1.5) was injected at 10 μL/min for 30 s following every dissociation phase.
The binding kinetics of these antibodies were measured using SPR. The antibodies were captured on immobilized anti-human Fc and CTLA-4-ECD at different concentration was injected orderly. The sensorgrams for reference channel and buffer channel were subtracted from the test sensorgrams. The data was used for 1:1 binding analysis on human, monkey and mouse CTLA-4.ECD-6×His.

[4] = biological target: T2, hCTLA4_ECD.His point mutant T147 to alanine (human, UniProt P16410 36-161); experiment: capture ELISA, alanine scan, vs silent alanine substitutions
T2 construct: extracellular domain; alanine-scan mutein, HEK293F supernatant
T2 sequence (looked up): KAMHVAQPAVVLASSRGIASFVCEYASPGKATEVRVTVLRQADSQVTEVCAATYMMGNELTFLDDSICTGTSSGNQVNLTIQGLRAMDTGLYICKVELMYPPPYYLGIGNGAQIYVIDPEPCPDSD
How it was run: (§2)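 Secreted His-tagged CTLA4 point muteins in quantified supernatant were captured and probed with HRP anti-His antibody and TMB. Absorbance normalised to the mean of control mutants; epitope residues were assigned with a binding fold-change cutoff of <0.55.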

[5] = biological target: T3, hCTLA4_ECD.His point mutant L126 to alanine (human, UniProt P16410 36-161); experiment: as above
T3 construct: extracellular domain; alanine-scan mutein, HEK293F supernatant
T3 sequence (looked up): T2 sequence (looked up) with L91A, A112T
How it was run: as §2

[6] = biological target: T4, hCTLA4_ECD.His point mutant Q76 to alanine (human, UniProt P16410 36-161); experiment: as above
T4 construct: extracellular domain; alanine-scan mutein, HEK293F supernatant
T4 sequence (looked up): T2 sequence (looked up) with Q41A, A112T
How it was run: as §2

[7] = biological target: T5, hCTLA4_ECD.His point mutant I143 to alanine (human, UniProt P16410 36-161); experiment: as above
T5 construct: extracellular domain; alanine-scan mutein, HEK293F supernatant
T5 sequence (looked up): T2 sequence (looked up) with I108A, A112T
How it was run: as §2

[8] = biological target: T6, hCTLA4_ECD.His point mutant Q148 to alanine (human, UniProt P16410 36-161); experiment: as above
T6 construct: extracellular domain; alanine-scan mutein, HEK293F supernatant
T6 sequence (looked up): T2 sequence (looked up) with A112T, Q113A
How it was run: as §2

[9] = biological target: T7, hCTLA4_ECD.His point mutant E132 to alanine (human, UniProt P16410 36-161); experiment: as above
T7 construct: extracellular domain; alanine-scan mutein, HEK293F supernatant
T7 sequence (looked up): T2 sequence (looked up) with E97A, A112T
How it was run: as §2

[10] = biological target: T8, hCTLA4_ECD.His point mutant K130 to alanine (human, UniProt P16410 36-161); experiment: as above
T8 construct: extracellular domain; alanine-scan mutein, HEK293F supernatant
T8 sequence (looked up): T2 sequence (looked up) with K95A, A112T
How it was run: as §2

binding result (Murine CTLA-4.ECD-6×His [1]): no binding (tested: about 7 nM)
B1: W3162_1.154.8-z35-uAb.IgG1K (antibody, V domains shown)
VH: QVQLVQSGAEVKKPGSSVKVSCKASGYTFTNYFMNWVRQAPGQGLEWMGRVDPEQGRADYAEKFKKRVTITADKSTSTAYMELSSLRSEDTAVYYCARRAMDNYGFAYWGQGTLVTVSS
VL: EIVLTQSPDFQSVTPKEKVTITCSANSALSYMYWYQQKPDQSPKLWVHGTSNLASGVPSRFSGSGSGTDFTLTINSLEAEDAATYYCHHWSNTQWTFGGGTKVEIK
notes: Humanized; label says IgG1K

EC50 (Murine CTLA-4.ECD-6×His [2]): 190 pM
Kd (Murine CTLA-4.ECD-6×His [3]): 1390 pM
koff (Murine CTLA-4.ECD-6×His [3]): 0.000239 s⁻¹
kon (Murine CTLA-4.ECD-6×His [3]): 172000 M⁻¹ s⁻¹
Fold change [4]: 0.486 fold
Fold change [5]: 0.398 fold
Fold change [6]: 0.2 fold
Fold change [7]: 0.264 fold
Fold change [8]: 0.5 fold
Fold change [9]: 0.457 fold
Fold change [10]: 0.348 fold
B2: W3162-1.146.19-z12-uAb.IgG1K (antibody, V domains shown)
VH: QVQLQESGPGLVKPSETLSLTCSVTYHTITSGYDWTWIRKPPGKGMEWIGYISYSGNTNYNPSLKSRVTISRDTSKNQFFLKLSSVTAADTAVYYCASMMVPHYYVMDAWGQGTLVTVSS
VL: DIVMTQTPLSLSVTPGQPASISCRSSQSLLNSDGNTYLYWYLQKPGQSPQLLIYLVSKLGSGVPNRFSGSGSGTDFTLKISRVEAEDVGVYYCVQGTHDPWTFGGGTKVEIK
notes: Humanized; label says IgG1K
